The text below walks through data of patent US20260116966A1 (KEYMED BIOSCIENCES CHENGDU, published 2026).

B1: 2F1 × CD3 GPRC5D×CD3 κλ bispecific antibody (bispecific antibody, human IgG4 S228P, kappa, lambda)
heavy 1: QVQLVQSGAEVKKPGSSVKVSCKASGYSFTGYTMNWVREAPGQGLEWMGLINPYNGGTRYNQKFQGRVTLTVDKSSSTAYMELSSLRSEDTAVYYCARWALRYGMDYWGQGTLVTVSSASTKGPSVFPLAPCSRSTSESTAALGCLVKDYFPEPVTVSWNSGALTSGVHTFPAVLQSSGLYSLSSVVTVPSSSLGTKTYTCNVDHKPSNTKVDKRVESKYGPPCPPCPAPEFEGGPSVFLFPPKPKDTLMISRTPEVTCVVVDVSQEDPEVQFNWYVDGVEVHNAKTKPREEQFNSTYRVVSVLTVLHQDWLNGKEYKCKVSNKGLASSIEKTISKAKGQPREPQVCTLPPSQEEMTKNQVSLSCAVKGFYPSDIAVEWESNGQPENNYKTTPPVLDSDGSFFLVSKLTVDKSRWQEGNVFSCSVMHEALHNHYTQKSLSLSLGK
light 1: DIQMTQSPSSLSASVGDRVTITCRASQNVGTNVAWYQKKPGKAPKALIYSASYRNSGVPSRFSGSGSGTDFTLTISSLQPEDFATYFCQQYNSYLLTFGGGTKVEIKRTVAAPSVFIFPPSDEQLKSGTASVVCLLNNFYPREAKVQWKVDNALQSGNSQESVTEQDSKDSTYSLSSTLTLSKADYEKHKVYACEVTHQGLSSPVTKSFNRGEC
heavy 2: EVQLVESGGGLVQPGGSLRLSCAASGFTFNTYAMNWVRKAPGKGLEWVGRIRSKYNNYATYYADSVKDRFTISRDDSKNSLYLQMNSLKTEDTAVYYCVRHGNFGNSYVSWFAYWGQGTLVTVSSASTKGPSVFPLAPCSRSTSESTAALGCLVKDYFPEPVTVSWNSGALTSGVHTFPAVLQSSGLYSLSSVVTVPSSSLGTKTYTCNVDHKPSNTKVDKRVESKYGPPCPPCPAPEFEGGPSVFLFPPKPKDTLMISRTPEVTCVVVDVSQEDPEVQFNWYVDGVEVHNAKTKPREEQFNSTYRVVSVLTVLHQDWLNGKEYKCKVSNKGLASSIEKTISKAKGQPREPQVYTLPPCQEEMTKNQVSLWCLVKGFYPSDIAVEWESNGQPENNYKTTPPVLDSDGSFFLYSKLTVDKSRWQEGNVFSCSVMHEALHNHYTQKSLSLSLGK
light 2: QAVVTQEPSLTVSPGGTVTLTCRSSTGAVTTSNYANWVQEKPGQAPRGLIGGTNKRAPWTPARFSGSLLGGKAALTITGAQAEDEAEYYCVLWYSNLWVFGGGTKLTVLGQPKAAPSVTLFPPSSEELQANKATLVCLISDFYPGAVTVAWKADSSPVKAGVETTTPSKQSNNKYAASSYLSLTPEQWKSHRSYSCQVTHEGSTVEKTVAPTECS
notes: Human IgG4 knob-into-hole, Ser228Pro, Leu235Glu, Pro329Ala; also called parent 2F1×CD3 bispecific antibody
B2: 4B1 × CD3 GPRC5D×CD3 κλ bispecific antibody (bispecific antibody, human IgG4, V domains shown)
VH 1: QAQLVQSGAEVKKPGSSVKVSCKASGYTFTSYNMHWVREAPGQGLEWMGYIYPGNGGTNYNQKFQGRVTLTADTSSSTAYMELSSLRSEDTAVYFCARGYGYRYWYFDVWGQGTLVTVSS
VL 1: EIVLTQSPATLSLSPGERATLSCRASSSVSYMHWYQKKPGQAPRRLIYDTSKLASGIPARFSGSGSGTDYTLTISSLEPEDFAVYYCQQWSNYPPTFGGGTKVEIK
VH 2: EVQLVESGGGLVQPGGSLRLSCAASGFTFNTYAMNWVRKAPGKGLEWVGRIRSKYNNYATYYADSVKDRFTISRDDSKNSLYLQMNSLKTEDTAVYYCVRHGNFGNSYVSWFAYWGQGTLVTVSS
VL 2: QAVVTQEPSLTVSPGGTVTLTCRSSTGAVTTSNYANWVQEKPGQAPRGLIGGTNKRAPWTPARFSGSLLGGKAALTITGAQAEDEAEYYCVLWYSNLWVFGGGTKLTVL
notes: Human IgG4 knob-into-hole Fc with Ser228Pro, Leu235Glu, Pro329Ala
B3: 15D1 × CD3 GPRC5D×CD3 κλ bispecific antibody (bispecific antibody, human IgG4, V domains shown)
VH 1: QVQLVQSGAEVKKPGSSVKVSCKASGYTFTNYVMHWVKEKPGQGLEWMGYINPYNDGTKYNEKFQGRVTLTSDKSSNTAYMELSSLRSEDTAVYYCARGGVRRYFDYWGQGTLVTVSS
VL 1: DIQMTQSPSSLSASVGDRVTITCRASQDIGSNLNWLQKEPGKAPKRLIYATSSLDSGVPSRFSGSRSGSDYTLTISSLQPEDFATYYCLQYASFPYTFGQGTKLEIK
VH 2: B2 VH 2
VL 2: B2 VL 2
notes: as for B2
B4: 8D1 × CD3 GPRC5D×CD3 κλ bispecific antibody (bispecific antibody, human IgG4, V domains shown)
VH 1: QVQLVQSGAEVKKPGSSVKVSCKASGYTFTSYYMYWVREAPGQGLEWMGGINPSNGGTKYNEKFQGRVTLTVDKSSSTAYMELSSLRSEDTAVYYCTRGSLRSYYYAMDYWGQGTLVTVSS
VL 1: DIQMTQSPSSLSASVGDRVTITCQASQDISNYLNWYQKKPGKAPKLLIYYTSRLHSGVPSRFSGSGSGTDYTFTISSLQPEDIATYFCQQGYSLPYTFGQGTKLEIK
VH 2: B2 VH 2
VL 2: B2 VL 2
notes: as for B2
B5: 4D3 × CD3 GPRC5D×CD3 κλ bispecific antibody (bispecific antibody, human IgG4, V domains shown)
VH 1: QVQLVQSGAEVKKPGSSVKVSCKASGYTFTNFPIEWMREAPGQGLEWMGNFHPYNDVTKYNEKFQGRVTLTVDKSSSTVYMELSSLRSEDTAVYYCALITRGYWGQGTLVTVSS
VL 1: DIVMTQSPDSLAVSLGERATINCKSSQSLLYSRNQKNSLAWYQKKPGQPPKLLIYWASTRESGVPDRFSGSGSGTDFTLTISSLQAEDVAVYYCQQYYSYPLTFGQGTKLEIK
VH 2: B2 VH 2
VL 2: B2 VL 2
notes: as for B2
B6: anti-GPRC5D chimeric antibody 2F1 (antibody, V domains shown)
VH: EVLLQQSGPELVKPGTSMKISCKASGYSFTGYTMNWVKQRHGKNLEWIGLINPYNGGTRYNQKFKGRATLTVDKSSSTAYMELLSLTSEDSAVYYCARWALRYGMDYWGQGTSVTVSS
VL: DIVMTQSQKFMSTSVGDRVSVTCKASQNVGTNVAWYQQKPGHSPKALIYSASYRNSGVPDRFTGSGSGTDFTLTISNVQSEDLAEYFCQQYNSYLLTFGGGTKLELK
B7: anti-GPRC5D chimeric antibody 8D1 (antibody, V domains shown)
VH: QVQLQQPGAELVKPGASVKLSCKASGYTFTSYYMYWVKQRPGQGLEWIGGINPSNGGTKYNEKFKSKATLTVDKSSSTAFMQLSSLTSEDSAVYYCTRGSLRSYYYAMDYWGQGTSVTVSS
VL: DIQMTQTTSSLSASLGDRVTISCRASQDISNYLNWYQQKPDGTVKLLIYYTSRLHSGVPSRFSGSGSGTDYSLTISNLEQEDLATYFCQQGYSLPYTFGGGTKLEIK
B8: anti-GPRC5D chimeric antibody 6H1 (antibody, V domains shown)
VH: QAYLQQSGAELVRSGASVKMSCKASGYTFTSYNMHWVKQTPGQGLEWIGYIYPGNGGTNYNQKFKGKATLTADTSSSTAYMQISSLTSEDSAVYFCARGYGYRYWYFDVWGTGTTVTVSS
VL: QIVLTQSPAIMSASPGEKVTMTCSASSSVSYMHWYQQKSGTSPKRWIYDTSKLASGVPARFSGSGSGTSYSLTISSMEAEDAATYYCQQWNSKPPTFGSGTKLEIK
B9: anti-GPRC5D chimeric antibody 2E1 (antibody, V domains shown)
VH: QVQLQQPGAELVKPGASVKLSCKASGYTFTRYWMHWVKQRPGQGLDWIGEFNPSNGRINYNEKFKNKATLTIDKSSSTAYMQLSSLTSEDSAVYYCTRGFAYWGQGTLVTVSA
VL: B8 VL with K18R, S28T, M32I, N91T, S92T, K93N, P95W, S99G
B10: anti-GPRC5D chimeric antibody 4B1 (antibody, V domains shown)
VH: B8 VH with K63N, T112A
VL: B8 VL with A59V, N91S, S92N, K93Y
B11: anti-GPRC5D chimeric antibody 15D1 (antibody, V domains shown)
VH: EVQLQQSGPELGKPGASVKMSCKASGYTFTNYVMHWVKQKPGQGLEWIGYINPYNDGTKYNEKFKGKATLTSDKSSNTAYMELSSLTSEDSAVYYCARGGVRRYFDYWGQGTTLTVSS
VL: DIQMTQSPSSLSASLGERVSLTCRASQDIGSNLNWLQQEPDGTIKRLIYATSSLDSGVPKRFSGSRSGSDYSLTISSLESEDFVDYYCLQYASFPYTFGGGTKLEIK

Numbering of substitutions follows the chain as printed.

T1 sequence (Q9NZD1 whole entry): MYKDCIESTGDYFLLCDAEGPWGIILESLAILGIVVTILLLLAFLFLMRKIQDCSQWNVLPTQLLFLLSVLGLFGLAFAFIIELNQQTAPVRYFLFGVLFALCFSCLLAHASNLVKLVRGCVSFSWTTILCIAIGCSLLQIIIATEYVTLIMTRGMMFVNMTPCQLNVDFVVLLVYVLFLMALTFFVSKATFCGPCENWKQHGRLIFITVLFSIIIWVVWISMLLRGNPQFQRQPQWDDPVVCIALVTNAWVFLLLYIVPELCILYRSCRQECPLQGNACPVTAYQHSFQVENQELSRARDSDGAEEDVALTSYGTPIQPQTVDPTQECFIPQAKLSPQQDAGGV

The first test addresses T1, human GPRC5D (human, UniProt Q9NZD1 1-345). In words: cell-based or functional assay.
As for B1, the “TDCC EC50 (pM), MM.1R” value came to 0.65 pM.

For the molecule B2, the “TDCC EC50 (pM), MM.1R” value is 6.95 pM.

For the molecule B3, the “TDCC EC50 (pM), MM.1R” value amounted to 96.5 pM.

For the molecule B4, the “TDCC EC50 (pM), MM.1R” value was 32.9 pM.

For B5, the “TDCC EC50 (pM), MM.1R” value was determined as 6.18 pM.

In the next test the target is T1, human GPRC5D. Put plainly: flow cytometry, MM.1R cells. A general note: Flow cytometry measures light scatter and fluorescence of single cells or particles in a stream.
Method: The cell suspension was adjusted to a concentration of 5×10⁵ cells/mL, and 100 μL per well was added to a 96-well U-shaped plate, centrifuged at 300 g for 5 min. The supernatant was discarded. 100 μL per well of serially diluted antibody was added (initial concentration: 200 nM, 3-fold dilution, 10 gradients), and incubated at 4° C. for 60 min. The primary antibody was washed away, and 50 μL/well Alexa Fluro647 labeled goat anti-human IgG FC (1:300 dilution) was added, and incubated for 20 min. After washing once, 50 μL/well of PI was added, incubated for 5 min, and detected by flow cytometry.
A word on the EC50: it is the concentration needed to bring the measured effect to its halfway point. Lower therefore signals a more potent agent. Consider B1, for which the response was half-maximal at 1.51 nM (EC50) and the “Maximum fluorescence intensity (MFI, 200 nM)” value (“Maximum fluorescence intensity” below) was found to be 94600 MFI.

For the molecule B2, the response was half-maximal at 3.35 nM (EC50) and the “Maximum fluorescence intensity” value stood at 70900 MFI.

For the molecule B3, the “Maximum fluorescence intensity” value came to 12800 MFI.

Regarding B4, the midpoint of the response, the EC50, lay at 3.34 nM and the “Maximum fluorescence intensity” value came out at 89000 MFI.

Consider B5, for which it took 10.7 nM to reach a half-maximal effect (EC50) and the “Maximum fluorescence intensity” value was determined as 110000 MFI.

The target of the next test is T2, Cynomolgus GPRC5D (Cynomolgus, UniProt Q9NZD1 1-343 (human entry)).
T2 construct: Full length, on stably transfected cells (HEK293-cyGPRC5D, CHO-cyGPRC5D); also called cyGPRC5D
T2 chain: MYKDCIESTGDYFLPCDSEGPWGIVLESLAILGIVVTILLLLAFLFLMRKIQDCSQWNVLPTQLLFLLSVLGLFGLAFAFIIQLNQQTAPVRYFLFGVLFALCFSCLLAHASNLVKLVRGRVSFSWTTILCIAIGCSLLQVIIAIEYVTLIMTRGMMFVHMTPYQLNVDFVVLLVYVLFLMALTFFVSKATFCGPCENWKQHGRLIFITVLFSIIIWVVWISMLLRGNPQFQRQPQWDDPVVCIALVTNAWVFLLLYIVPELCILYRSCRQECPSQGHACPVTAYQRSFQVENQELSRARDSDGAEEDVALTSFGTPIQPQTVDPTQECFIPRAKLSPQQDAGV
Put plainly: flow cytometry on CHO-cyGPRC5D cells.
Method: (§1) The binding of the antibodies to human and Cynomolgus GPRC5D stably transfected cells was detected by flow cytometry. […] Then, 100 μl/well of the cell suspension was added to a 96-well U-shaped plate, and centrifuged at 300 g for 5 min. The supernatant was discarded. 100 μL per well of serially diluted antibody was added (initial concentration: 200 nM, 3-fold dilution, 12 gradients), and incubated at 4° C. for 45 min. The secondary antibody 50 μL/well of Alexa Fluro647 labeled goat anti-human IgG Fc (1:300 dilution) was added, incubated on ice for 45 min, and detected by flow cytometry.
Take B6: the binding result was “binds”.

By EC50 (read off the curve) is commonly meant the concentration needed to bring the measured effect to its halfway point. Regarding B7, the 50% effective concentration (EC50 (read off the curve)) is around 0.4 nM.

Turning to B8, the binding result was “binds”.

As to B9, the binding result is reported as “binds”.

Consider B10, for which the binding result is “binds”.

In the case of B11, the binding result is recorded as “binds”.

For a further test, the target named is T1, human GPRC5D. Put plainly: flow cytometry on CHO-hGPRC5D cells.
Method: as §1
In the case of B6, the binding result is “binds”.

Regarding B7, the binding result is “binds”.

As for B8, the binding result is on record as “binds”.

In the case of B9, the binding result is on record as “binds”.

Regarding B10, the 50% effective concentration (EC50 (read off the curve)) was around 0.6 nM.

With B11, the concentration giving a half-maximal response (EC50 (read off the curve)) was around 0.1 nM.
